Assay results taken from CN115057938A (dated 2022).

Biological target: T1, Delta变异株SARS-COV-2 RBD蛋白(Ag101) (SARS-COV-2 Delta变异株, UniProt P0DTC2 319-541)
T1 construct: domain: RBD; also called Delta variant SARS-COV-2 RBD protein
Experiment: competition ELISA: Delta RBD coated, blocks ACE2 binding

Binder	IC50 [pM]
R1463 (VHH, also called RX017 VHH-His标签; 对照) VHH: QVQLVESGGGVVQPGGSLRLSCTCSRCTFNWDGMGWFRQAPGKGLEFVATISWSGQEPAYADSVKGRFTISRDNSKNTLYLQMTSLRAEDTAVYYCAAAQYTGASYSILRDQVGYDYWGQGTLVTVSS	18.1
R1464 (VHH, not shown: small tags and cut ends, also called 人源化多价结合蛋白 R1464; His标签-VHH-Linker-VHH-Linker-VHH) chain (part 1 of 3): HHHHHHQVQLVESGGGVVQPGGSLRLSCTCSRCTFNWDGMGWFRQAPGKGLEFVATISWSGQEPAYADSVKGRFTISRDNSKNTLYLQMTSLRAEDTAVYYCAAAQYTGASYSILRDQVGYDYWGQGTLVTVSS chain (part 2 of 3): QVQLVESGGGVVQPGGSLRLSCTCSRCTFNWDGMGWFRQAPGKGLEFVATISWSGQEPAYADSVKGRFTISRDNSKNTLYLQMTSLRAEDTAVYYCAAAQYTGASYSILRDQVGYDYWGQGTLVTVSS chain (part 3 of 3): QVQLVESGGGVVQPGGSLRLSCTCSRCTFNWDGMGWFRQAPGKGLEFVATISWSGQEPAYADSVKGRFTISRDNSKNTLYLQMTSLRAEDTAVYYCAAAQYTGASYSILRDQVGYDYWGQGTLVTVSS	4.32
R1475 (VHH, not shown: small tags and cut ends, also called 人源化多价结合蛋白 R1475; VHH-Linker-VHH-His标签) VHH 1: QVQLVESGGGVVQPGGSLRLSCTCSRCTFNWDGMGWFRQAPGKGLEFVATISWSGQEPAYADSVKGRFTISRDNSKNTLYLQMTSLRAEDTAVYYCAAAQYTGASYSILRDQVGYDYWGQGTLVTVSS VHH 2: QVQLVESGGGVVQPGGSLRLSCTCSRCTFNWDGMGWFRQAPGKGLEFVATISWSGQEPAYADSVKGRFTISRDNSKNTLYLQMTSLRAEDTAVYYCAAAQYTGASYSILRDQVGYDYWGQGTLVTVSS	3.34
